This is an account of results in publication PMC11514477.

Test [1] deals with macroH2A1 (endogenous; collective term for macroH2A1.1 and macroH2A1.2) (mouse (endogenous in C2C12 and MEF)). The test can be described thus: proximity ligation; duolink PLA in situ in control C2C12 cells; high-content screening microscopy (Operetta), nuclear spots of the full cell population counted with Harmony.
Test [2] has the same target. Put plainly: proximity ligation; duolink PLA in situ in C2C12 stable knockdown lines (Scramble control, macroH2A2 knockdown); cells extracted before fixation to remove soluble Mcm2; EdU-positive cells; confocal imaging, spots per nucleus counted in FIJI.

Sequence of macroH2A1 (endogenous; collective term for macroH2A1.1 and macroH2A1.2) (mouse (endogenous in C2C12 and MEF)) (Q9QZQ8 whole entry): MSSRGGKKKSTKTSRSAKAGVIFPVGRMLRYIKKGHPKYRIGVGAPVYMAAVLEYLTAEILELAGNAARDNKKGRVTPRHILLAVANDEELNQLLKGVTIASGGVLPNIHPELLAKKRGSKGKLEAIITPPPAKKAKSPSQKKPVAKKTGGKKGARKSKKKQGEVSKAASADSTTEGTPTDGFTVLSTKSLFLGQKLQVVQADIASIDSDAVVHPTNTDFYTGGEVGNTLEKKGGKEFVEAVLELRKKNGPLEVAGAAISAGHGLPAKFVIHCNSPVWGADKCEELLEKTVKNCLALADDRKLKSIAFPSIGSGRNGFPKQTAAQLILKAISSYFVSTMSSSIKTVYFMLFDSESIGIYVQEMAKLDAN

As for “Mcm2 (subunit of the Mcm DNA helicase complex) (from UniProt P97310 1-904) (natural protein)”, the PLA spots per nucleus (spots per nucleus) in test [1] is 15.1. Besides, in test [2], the PLA spots per nucleus (control Scramble cells) (spots per nucleus) came out at 19.8 and the PLA spots per nucleus (macroH2A2 depleted cells) (spots per nucleus) worked out at 18.2.
